Assay results published in patent US20060052582.

Columns and labels:
[1] = target: GST Nek7, unphosphorylated (bacterial recombinant)
[2] = target: myc 6His Nek6 (Nek6 with carboxy terminal myc/6His epitopes)
Chain of myc 6His Nek6 (Nek6 with carboxy terminal myc/6His epitopes) (chain, as listed by the source): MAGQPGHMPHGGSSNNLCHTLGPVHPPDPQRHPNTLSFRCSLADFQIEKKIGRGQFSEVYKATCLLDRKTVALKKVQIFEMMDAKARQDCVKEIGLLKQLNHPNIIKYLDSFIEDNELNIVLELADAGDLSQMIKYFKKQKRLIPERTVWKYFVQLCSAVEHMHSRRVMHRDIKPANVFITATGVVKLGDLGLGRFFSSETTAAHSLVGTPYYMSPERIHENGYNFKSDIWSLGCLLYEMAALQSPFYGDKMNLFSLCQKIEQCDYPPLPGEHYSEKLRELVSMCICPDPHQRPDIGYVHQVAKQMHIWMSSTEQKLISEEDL

Chain of GST Nek6 (chain, as listed by the source): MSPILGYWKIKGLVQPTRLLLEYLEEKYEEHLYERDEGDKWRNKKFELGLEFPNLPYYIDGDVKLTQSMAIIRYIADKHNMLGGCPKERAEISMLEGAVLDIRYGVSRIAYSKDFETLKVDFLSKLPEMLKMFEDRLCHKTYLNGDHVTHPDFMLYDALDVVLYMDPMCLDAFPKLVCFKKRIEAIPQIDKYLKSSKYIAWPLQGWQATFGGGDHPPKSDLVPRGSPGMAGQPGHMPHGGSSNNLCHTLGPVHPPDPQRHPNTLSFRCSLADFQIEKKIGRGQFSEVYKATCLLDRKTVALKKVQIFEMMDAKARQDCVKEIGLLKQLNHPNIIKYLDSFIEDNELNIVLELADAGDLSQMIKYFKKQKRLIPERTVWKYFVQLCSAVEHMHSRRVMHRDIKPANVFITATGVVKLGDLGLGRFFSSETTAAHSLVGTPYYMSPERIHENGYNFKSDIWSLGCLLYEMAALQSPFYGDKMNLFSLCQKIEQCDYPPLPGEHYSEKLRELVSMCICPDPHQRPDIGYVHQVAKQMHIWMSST
Chain of GST Nek7, unphosphorylated (bacterial recombinant) (chain, as listed by the source): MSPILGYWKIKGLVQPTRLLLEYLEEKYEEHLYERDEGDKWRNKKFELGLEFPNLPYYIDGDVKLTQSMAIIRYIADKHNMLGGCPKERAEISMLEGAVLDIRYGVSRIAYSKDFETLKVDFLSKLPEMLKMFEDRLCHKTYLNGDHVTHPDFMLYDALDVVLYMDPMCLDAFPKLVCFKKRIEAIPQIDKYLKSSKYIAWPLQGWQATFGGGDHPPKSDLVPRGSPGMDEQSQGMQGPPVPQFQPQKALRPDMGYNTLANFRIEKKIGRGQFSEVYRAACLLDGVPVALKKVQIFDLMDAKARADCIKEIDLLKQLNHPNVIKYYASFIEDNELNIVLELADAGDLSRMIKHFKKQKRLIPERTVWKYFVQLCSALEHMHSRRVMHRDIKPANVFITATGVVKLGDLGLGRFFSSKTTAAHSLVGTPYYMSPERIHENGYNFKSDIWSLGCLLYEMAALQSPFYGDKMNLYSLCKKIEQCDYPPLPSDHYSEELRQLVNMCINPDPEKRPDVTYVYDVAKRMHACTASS
Chain of GST Nek6 (K74M/K75M) (chain, as listed by the source K74M K75M): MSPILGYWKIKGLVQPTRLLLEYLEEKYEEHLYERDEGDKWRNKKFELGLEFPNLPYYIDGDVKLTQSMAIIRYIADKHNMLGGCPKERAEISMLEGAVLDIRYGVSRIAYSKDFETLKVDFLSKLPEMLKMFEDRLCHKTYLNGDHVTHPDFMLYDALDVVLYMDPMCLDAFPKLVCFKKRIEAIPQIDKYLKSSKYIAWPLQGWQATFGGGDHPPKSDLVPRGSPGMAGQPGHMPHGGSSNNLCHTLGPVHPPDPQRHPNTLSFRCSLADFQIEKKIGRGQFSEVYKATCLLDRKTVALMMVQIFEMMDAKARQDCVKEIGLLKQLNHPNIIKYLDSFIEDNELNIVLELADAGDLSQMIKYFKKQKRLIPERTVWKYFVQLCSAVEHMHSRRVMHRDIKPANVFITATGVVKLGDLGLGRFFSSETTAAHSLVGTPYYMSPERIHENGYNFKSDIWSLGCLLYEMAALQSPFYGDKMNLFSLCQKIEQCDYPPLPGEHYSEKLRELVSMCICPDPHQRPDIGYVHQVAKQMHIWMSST

B1: FLAG Nercc (full-length wild type Nercc1 kinase with FLAG epitope tag) (protein)
chain: MDYKDDDDKMSVLGEYERHCDSINSDFGSESGGCGDSSPGPSASQGPRAGGGAAEQEELHYIPIRVLGRGAFGEATLYRRTEDDSLVVWKEVDLTRLSEKERRDALNEIVILALLQHDNIIAYYNHFMDNTTLLIELEYCNGGNLYDKILRQKDKLFEEEMVVWYLFQIVSAVSCIHKAGILHRDIKTLNIFLTKANLIKLGDYGLAKKLNSEYSMAETLVGTPYYMSPELCQGVKYNFKSDIWAVGCVIFELLTLKRTFDATNPLNLCVKIVQGIRAMEVDSSQYSLELIQMVHSCLDQDPEQRPTADELLDRPLLRKRRREMEEKVTLLNAPTKRPRSSTVTEAPIAVVTSRTSEVYIWGGGKSTPQKLDVIKSGCSARQVCAGNTHFAVVTVEKELYTWVNMQGGTKLHGQLGHGDKASYRQPKHVEKLQGKAIHQVSCGDDFTVCVTDEGQLYAFGSDYYGCMGVDKVAGPEVLEPMQLNFFLSNPVEQVSCGDNHVVVLTRNKEVYSWGCGEYGRLGLDSEEDYYTPQKVDVPKALIIVAVQCGCDGTFLLTQSGKVLACGLNEFNKLGLNQCMSGIINHEAYHEVPYTTSFTLAKQLSFYKIRTIAPGKTHTAAIDERGRLLTFGCNKCGQLGVGNYKKRLGINLLGGPLGGKQVIRVSCGDEFTIAATDDNHIFAWGNGGNGRLAMTPTERPHGSDICTSWPRPIFGSLHHVPDLSCRGWHTILIVEKVLNSKTIRSNSSGLSIGTVFQSSSPGGGGGGGGGEEEDSQQESETPDPSGGFRGTMEADRGMEGLISPTEAMGNSNGASSSCPGWLRKELENAEFIPMPDSPSPLSAAFSESEKDTLPYEELQGLKVASEAPLEHKPQVEASSPRLNPAVTCAGKGTPLTPPACACSSLQVEVERLQGLVLKCLAEQQKLQQENLQIFTQLQKLNKKLEGGQQVGMHSKGTQTAKEEMEMDPKPDLDSDSGCLLGTDSCRPSL
Question: Which “Nek6/7 kinase activity (32P into GST Cdc16 Ct)” value [1] does the source give for B1 here?
Answer: Its value is 20-25 fold activation of Nek6/7 kinase activity.

Question: And the “phosphorylation of Nek6 (K74M/K75M) at Ser206 in vitro” value (GST Nek6 (K74M/K75M))?
Answer: The value was “This modification occurred, however, with a rather low efficiency”.

Question: What about the “Nek6/7 kinase activity (32P into GST Cdc16 Ct)” value (GST Nek6) of the same protein?
Answer: Its value is 20-25 fold activation of Nek6/7 kinase activity.

B2: FLAG Nercc (Δ347-732) (protein)
chain: MDYKDDDDKMSVLGEYERHCDSINSDFGSESGGCGDSSPGPSASQGPRAGGGAAEQEELHYIPIRVLGRGAFGEATLYRRTEDDSLVVWKEVDLTRLSEKERRDALNEIVILALLQHDNIIAYYNHFMDNTTLLIELEYCNGGNLYDKILRQKDKLFEEEMVVWYLFQIVSAVSCIHKAGILHRDIKTLNIFLTKANLIKLGDYGLAKKLNSEYSMAETLVGTPYYMSPELCQGVKYNFKSDIWAVGCVIFELLTLKRTFDATNPLNLCVKIVQGIRAMEVDSSQYSLELIQMVHSCLDQDPEQRPTADELLDRPLLRKRRREMEEKVTLLNAPTKRPRSSTVTEAPIAVVTSRTIRSNSSGLSIGTVFQSSSPGGGGGGGGGEEEDSQQESETPDPSGGFRGTMEADRGMEGLISPTEAMGNSNGASSSCPGWLRKELENAEFIPMPDSPSPLSAAFSESEKDTLPYEELQGLKVASEAPLEHKPQVEASSPRLNPAVTCAGKGTPLTPPACACSSLQVEVERLQGLVLKCLAEQQKLQQENLQIFTQLQKLNKKLEGGQQVGMHSKGTQTAKEEMEMDPKPDLDSDSGCLLGTDSCRPSL
Question: How did the “specific activity of coexpressed Nek6” value [2] turn out when B2 was run?
Answer: Its value is “a two-fold increase in the specific activity of coexpressed Nek6”.
